Assay [1] has as its target SOS1 (UniProt Q07889). The experiment in a line: anti-FLAG IP, SRM mass spectrometry. To be noted: reference: wild type, no EGF.
In assay [2] the target is VAV2 (UniProt P52735). In words: anti-FLAG IP, SRM mass spectrometry. To be noted: reference: wild type, no EGF.

As to “EGFR (chimeric EGFR-FLAG-GFP) (from UniProt P00533) wild type, EGF 15 min”, the fold change in assay [1] stood at 1.91 fold; in assay [2], 1.4 fold.

These data come from publication PMC2742444.
